Earlier results, collected in patent publication US7897835B2, “Expression vectors pSSA-K and pSSA-H for expression of SOD and APX in plants to provide stress tolerance” (Korea Research Institute of Bioscience and Biotechnology, priority 2004, dated 2011).

Test system: tobacco protoplast
Settings: transient assay with GUS protein

B1: SWPA2 promoter: oxidative stress inducible peroxidase promoter isolated from sweetpotato (Ipomoea batatas), SEQ. ID. No 15 (nucleic acid)
DNA: AAGCTTCCATGATCAGATCGATAATACCAAATGGTACCACCTAACTAGGTGATATATATTATGTATGTCATTATTTTAAACTGTATTACAAAGACTATTTTTTCATTAATTGGTACAAAGAAAAATTAAACAGAAAAGAAAGGAAAAAATGACTCACCACCTAGCACCTAGACACCTAGACACCAAGTACCCAAACCCTCTATTTTCAACATCTATTTTCAGATGTAAATATGAGTTGGACGAAGAAGGTGTTAGCAATTATTTGATTAATCTTGCTACGATAATTATGATCCACTCACTTAGTCATTTTTTTCAGACCAAGACAACTAGCTTGAGTTTTTTATTGTATGTGGTCGGAACGTTTTTTGTAATTAAAAAAATAAAAGTTGCATCATTATATATGGTAGATTAAGTAATTGATCAATCAACGTTTAATTTTGCATTTATCGGCAAGGTGGAGGTTCCAACTTCCAGTCGAACTTAGAGAGTCATTGGAGACCTTGACCAGTTAACTAGCGGTGTCGAAAACCTGCACAACTTGAGATTTAATTGCATACCTTTTATATATGACGCGTTTTATTTTTTTTTCCTAGAAAATAATTTGGAAGAAAATAAGAATATGTATTCTGTGAAAGCTAGGCCAAAACGAATGTCTTTTCGTCGTTTTCGTTAAAGGTTTAGATCATATTTCATCTGGTCCAACACTCAAACTTGTATAATGGACGAATTATTAGTCATTTTAGACCTACCGGCTAGCGCGACTTTTTTGTTTTCCATAAAGATTCGATAATTGCATGGCCAGATGCAAAGTTTGAAATTTAATGTTTGCCAAATCCTATCATACACCACAACACATGTCTCAGGGCCAAGTGGCACCAGCAAACATTCCTGTCATAATTAATTTTTTTAATGAGAAGGAGGAAACTCACAGCTATTACTCGAAGGTATATAATATTGAGTAAATCTTACTTTGTGATTCTAGTTGACAAAACACCGCAAGATAAACTATACTAAGTTCAAATCACCTCACCGGGTTGGCTCAGATTGGTTTTTTCAATACAAGAGGGGGTGTGAACTCCCGTGCCGACCTCTTTTGAGGGACAATAATGTACGGTCACGCCAACCTAGCTTGATTTTTTCTGACAAATATATTACTACATATATTACACGGTCAAATAATTAATCAAAAAATAAAAAAAGACCCCAATTAAAGTCCCCAACCACTCTCAAATATTCTATTTAAGGGAAACCTTAGAGGCAATTCATGCATCCTCAACCCCTTCTTCTTCATTTTCTTAATCTTACATTTTCCTTTGACCCTCGAG
modifications: Ipomoea batatas
In the case of B1, the “promoter activity relative to CaMV 35S promoter” value is listed as “at least 30 fold”.
